From PMC3093450 (Nature, 2011)
Changes are numbered by the printed parent chain. Names and notes keep the numbering of the source.

T1: His6-Sec24p (yeast, UniProt P40482 1-926)
T1 sequence (looked up): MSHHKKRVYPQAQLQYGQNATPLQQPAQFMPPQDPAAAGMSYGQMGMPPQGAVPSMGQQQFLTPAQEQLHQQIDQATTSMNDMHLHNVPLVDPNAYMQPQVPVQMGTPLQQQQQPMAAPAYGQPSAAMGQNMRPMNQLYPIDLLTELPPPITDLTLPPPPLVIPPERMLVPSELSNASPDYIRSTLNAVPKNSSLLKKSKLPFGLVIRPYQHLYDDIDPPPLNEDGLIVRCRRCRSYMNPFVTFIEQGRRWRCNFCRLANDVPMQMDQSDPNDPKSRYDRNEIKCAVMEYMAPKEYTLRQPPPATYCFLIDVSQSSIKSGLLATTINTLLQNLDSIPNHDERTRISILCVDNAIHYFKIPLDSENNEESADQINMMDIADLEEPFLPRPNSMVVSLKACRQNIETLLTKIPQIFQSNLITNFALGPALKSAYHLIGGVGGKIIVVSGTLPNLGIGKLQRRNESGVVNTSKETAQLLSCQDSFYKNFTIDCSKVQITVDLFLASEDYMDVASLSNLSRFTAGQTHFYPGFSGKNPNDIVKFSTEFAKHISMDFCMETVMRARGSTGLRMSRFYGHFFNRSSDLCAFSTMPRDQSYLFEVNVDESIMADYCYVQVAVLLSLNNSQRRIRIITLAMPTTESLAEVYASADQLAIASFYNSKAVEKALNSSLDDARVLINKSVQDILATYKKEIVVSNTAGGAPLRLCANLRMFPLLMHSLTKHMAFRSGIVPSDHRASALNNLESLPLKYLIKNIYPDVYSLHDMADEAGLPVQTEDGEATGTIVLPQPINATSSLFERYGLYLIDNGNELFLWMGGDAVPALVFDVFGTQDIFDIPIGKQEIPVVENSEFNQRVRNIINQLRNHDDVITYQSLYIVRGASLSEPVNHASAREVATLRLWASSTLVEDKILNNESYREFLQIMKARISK

B1: His6-Hrr25p (enzyme, yeast, UniProt P29295 1-494, looked up)
chain: MDLRVGRKFRIGRKIGSGSFGDIYHGTNLISGEEVAIKLESIRSRHPQLDYESRVYRYLSGGVGIPFIRWFGREGEYNAMVIDLLGPSLEDLFNYCHRRFSFKTVIMLALQMFCRIQYIHGRSFIHRDIKPDNFLMGVGRRGSTVHVIDFGLSKKYRDFNTHRHIPYRENKSLTGTARYASVNTHLGIEQSRRDDLESLGYVLIYFCKGSLPWQGLKATTKKQKYDRIMEKKLNVSVETLCSGLPLEFQEYMAYCKNLKFDEKPDYLFLARLFKDLSIKLEYHNDHLFDWTMLRYTKAMVEKQRDLLIEKGDLNANSNAASASNSTDNKSETFNKIKLLAMKKFPTHFHYYKNEDKHNPSPEEIKQQTILNNNAASSLPEELLNALDKGMENLRQQQPQQQVQSSQPQPQPQQLQQQPNGQRPNYYPEPLLQQQQRDSQEQQQQVPMATTRATQYPPQINSNNFNTNQASVPPQMRSNPQQPPQDKPAGQSIWL
B2: GST-Sec23p S742D (natural protein, yeast)
chain: DFETNEDINGVRFTWNVFPSTRSDANSNVVPVGCLYTPLKEYDELNVAPYNPVVCSGPHCKSILNPYCVIDPRNSSWSCPICNSRNHLPPQYTNLSQENMPLELQSTTIEYITNKPVTVPPIFFFVVDLTSETENLDSLKESIITSLSLLPPNALIGLITYGNVVQLHDLSSETIDRCNVFRGDREYQLEALTEMLTGQKPTGPGGAASHLPNAMNKVTPFSLNRFFLPLEQVEFKLNQLLENLSPDQWSVPAGHRPLRATGSALNIASLLLQGCYKNIPARIILFASGPGTVAPGLIVNSELKDPLRSHHDIDSDHAQHYKKACKFYNQIAQRVAANGHTVDIFAGCYDQIGMSEMKQLTDSTGGVLLLTDAFSTAIFKQSYLRLFAKDEEGYLKMAFNGNMAVKTSKDLKVQGLIGHASAVKKTDANNISESEIGIGATSTWKMASLSPYHSYAIFFEIANTAANSNPMMSAPGSADRPHLAYTQFITTYQHSSGTNRIRVTTVANQLLPFGTPAIAASFDQEAAAVLMARIAVHKAETDDGADVIRWLDRTLIKLCQKYADYNKDDPQSFRLAPNFSLYPQFTYYLRRSQFLSVFNNSPDETAFYRHIFTREDTTNSLIMIQPTLTSFSMEDDPQPVLLDSISVKPNTILLLDTFFFILIYHGEQIAQWRKAGYQDDPQYADFKALLEEPKLEAAELLVDRFPLPRFIDTEAGGSQARFLLSKLNPSDNYQDMARGGDTIVLTDDVSLQNFMTHLQQVAVSGQA
B3: GST-Sec23p T747E (natural protein, yeast)
chain: B2 chain with D741S, T746E
B4: GST-Sec23p S742D/T747E (natural protein, yeast)
chain: B2 chain with T746E
B5: GST-Sec23p (natural protein, yeast)
chain: B2 chain with D741S

Legend:
[1] = molecular target: B5; test: pull-down
[2] = molecular target: T1, His6-Sec24p; test: pull-down

Binder | Kd [1] | binding result [2]
B1 | 0.043 µM | –
B2 | – | binds
B3 | – | binds
B4 | – | binds
B5 | – | binds
